Experiments:
[1] = biological target: T1, annexin-V, membrane-bound trimeric form (A5) (human), P08758; test: HS-AFM height spectroscopy (HS-AFM-HS); tip on one protomer of the rotating non-p6 trimer at the centre of the hexagonal A5 p6-lattice; dwell-times in the 0° and 60° orientations; captured at 655 kHz; conditions: remark: other sources report otherwise
T1 chain: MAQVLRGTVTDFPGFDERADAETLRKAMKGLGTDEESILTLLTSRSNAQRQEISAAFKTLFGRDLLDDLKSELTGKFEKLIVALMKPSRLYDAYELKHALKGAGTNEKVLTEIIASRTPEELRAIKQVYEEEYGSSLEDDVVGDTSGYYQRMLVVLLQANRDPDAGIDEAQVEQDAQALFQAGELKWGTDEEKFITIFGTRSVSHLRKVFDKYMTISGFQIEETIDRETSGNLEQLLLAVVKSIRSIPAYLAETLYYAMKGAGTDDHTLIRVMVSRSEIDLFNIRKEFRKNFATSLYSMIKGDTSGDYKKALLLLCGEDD

[2] = biological target: T1, annexin-V, membrane-bound trimeric form …; test: HS-AFM line scanning (HS-AFM-LS); line scanned across one protomer of the non-p6 trimer in the A5 p6-lattice, 2.4 ms per line; dwell-times in each orientation before rotation; conditions: remark: other sources report otherwise

B1: annexin-V, membrane-bound trimeric form (A5), P08758 1-320 (natural protein)
chain: T1 chain
For B1, the average dwell-time in the 0° or 60° orientation before rotation [1] was 26 ms, the average dwell-time in the 0° or 60° orientation before rotation [2] was 35 ms and the peak of the distribution of state dwell-times before rotation (Gaussian 1 of 3) [2] was 13 ms. It also gave a peak of the distribution of state dwell-times before rotation (Gaussian 2 of 3) [2] of 41 ms and a peak of the distribution of state dwell-times before rotation (Gaussian 3 of 3) [2] of 96 ms.

From article PMC6255864
